In patent US10400224B2, “Enantioselective modified esterase enzyme and method for the production thereof” (CORPORACIÓN CORPOGEN, priority 2014, dated 2019):

What was measured:
[1] = Optimum temperature and pH of the modified enzyme (p-nitrophenyl ester assay); assay type: biochemical
Experimental: The activity of the modified enzyme was determined spectrophotometrically at 405 nm in a range of temperatures between 45 and 75° C., using p-nitro phenyl of other chains C6 to C10 (Sigma-Aldrich) as substrate. One unit of esterase activity was defined as the capacity of the enzyme to release 1 μmol min^−1 of p-nitrophenol under the essay conditions. The molar absorbance coefficient was of 16.900 M^−1 cm^−1. The mixture consisted of 448 μl of the Tris-HCl 50 mM buffer at 9.0 pH that contained 50 μl of p-nitrophenyl diluted in isopropanol and 2 μl of the solution stock of the protein. All the assays were made by triplicate and the average was calculated.
The optimum temperature of the modified enzyme was evaluated between 30 and 90° C. in buffer Tris HCl 50 mM (pH 9.0) exposing the enzyme to 30 minutes in each evaluated temperature (Suzuki et al., 2004, Park et al., 2006). […]
It was evaluated the activity of the enzyme by means of the p-nitrophenyl ester with some modifications, since for evaluating different pH values were used different buffer solutions, depending of the pH to evaluate: buffer acetate 50 mM (pH 5.0-6.0) buffer succinate (pH 4.0-5.5), MES (pH5.5-7.0). […] The protein was incubated for 15 minutes at a temperature higher than 45° C. and lower than 75° C. and then the quantification was made.

[2] = Kinetic resolution of racemic phenyl ester of ibuprofen (chiral HPLC); assay type: biochemical
Experimental: An evaluation was performed analytical scale to deter mine the kinetic resolution of phenyl ester substrates of ibuprofen and naproxen (Chow et al., 2012). The evaluation of the kinetic resolution for phenyl ester substrates of ibuprofen was developed in the following manner:
i) A solution with 17.32 Ml of buffer phosphate (100 mM, pH 8.0) was mixed with 2 ml. of DMSO and 0.66 mil of the stock solution of the substrate (10 mM in DMSO). To this solution it was added 100 μl of the enzyme to evaluate. The reaction was made with continuous agitation at a temperature from 45° C. and 75° C. for 80 minutes.
ii) The reaction was stopped by the addition of a concentrated solution of HCl (pH 1.0). Immediately thereafter, it was extracted the ibuprofen with methyl tertiary butyl ether (MTBE) twice with 20 ml of the solution.
iii) The ibuprofen was derivatized as a methyl ester after having added a solution of diazomethane 0.5 M in ethanol. The solvent was removed by means of reduction of pressure.
iv) The enantiomeric excess of the phenyl ester Ibuprofen and of the methyl ester ibuprofen was determined by means of chiral liquid high efficiency chromatography (HPLC—High performance liquid chromatography) (Dionex) using a Chiralpak IA column, under the following conditions: • A mobile phase n-heptane:isopropanol with a ratio of 99.8:0.2 • A flow of 0.5 mL.min^1 • Reading at 210 nm.
v) The retention time for the enantiomer (S) methyl ester ibuprofen was of 10:23 minutes, while that for the enantiomer (R) methyl ester ibuprofen was of 11:17 minutes. The retention time for the enantiomers (S) and (R) phenyl ester ibuprofen were of 16.32 and 18.07 respectively.

[3] = Kinetic resolution of phenyl ester of naproxen (1H-NMR, chiral HPLC); assay type: biochemical
Experimental: (§1) The enantioselectivity was evaluated by means of the kinetic resolution of the substrates phenyl ester naproxen and pNP ester naproxen. The procedure was the following (Chow et al., 2012):
(§2) i) 69.29 mL of a buffer phosphate solution (100 mM, pH 8.0) was mixed with 8 mL of DMSO-d6 and 2.64 mL of the stock solution of the substrate (10 mM in DMSO-d6). To this solution, it was added 200 μl of the enzyme to evaluate. The reaction was performed under continuous agitation at a temperature between 45° C. and 75° C. for 40 minutes.
(§3) ii) The reaction was stopped by adding a concentrated solution of HCl (pH 1.0). Immediately, the naproxen was extracted with MTBE twice with 20 ml of the solution.
(§4) iii) The extracted mixture of naproxen was dried under reduced pressure conditions. The transformation of this substrate was determined by means of MRI spectrographs (1H-NMR, Hydrogen-1 nuclear magnetic resonance) in which were compared the signals generated by the methyl groups from the naproxen and its corresponding esters.
(§5) iv) After measuring the samples containing the naproxen and the phenyl ester of naproxen, these samples were mixed with MTBE, 20 mL and extracted again with 20 mL, from an aqueous solution of NaHCO3.
(§6) v) The aqueous phase was acidified with HCl and it was extracted with MTBE, 20 ml. The extracted naproxen was derivatized to methyl ester through the addition of a solution of diazomethane 0.5 M in ethanol. The solvent was removed by a reduced pressure.
(§7) vi) The enantiomeric excess of the methyl ester ibuprofen was determined by means of chiral liquid high efficiency chromatography (HPLC—High performance liquid chromatography) (Dionex) using a Chiralcel ODH, under the following conditions • A mobile phase n-heptane: isopropanol with a ratio of 99:1 • A flow of 0.5 mL.min^1 • Reading at 225 nm.
(§8) vii) The retention time for the (S) and (R) enantiomers of methyl ester naproxen were of 22.84 and 19.39 minutes, respectively.

[4] = Kinetic resolution of pNP ester of naproxen (1H-NMR, chiral HPLC); assay type: biochemical
Experimental: as §1, §2, §3, §4, §5, §6, §7, §8
viii) The samples evaluated by NMR, underwent an additional test for determining the ee, by means of chiral HPLC with a CD detector (Jasco) using a Hyperclone ODS C18 column, under the following conditions: • A mobile phase of acetonitrile:water in a ratio of 80:20. • Flow of 0.5 mL.min^−1 • Reading of 220 nm
ix) The retention time for the p-NP ester of naproxen was of 3.83 minutes. The CD signal was measured at 280 nm.

[5] = Storage of the purified modified protein in Tris-HCl buffer; assay type: physicochemical; conditions: Tris-HCL buffer at 9.0 pH, 4° C.
Experimental: Thereafter, the product of the elution was concentrated in Amicon columns of 30 kDa. This concentration process was strictly necessary in order to be able to rule out the elution solution in which it was the protein and permit to leave it in a Tris-HCL buffer at a 9.0 pH, which permits stability to the modified protein. […] The purity of the protein was evaluated in a SDS-PAGE gel at 12% (p/v).

[6] = calculated by method of Kroutil et al, 1997

B1: 499EST: esterase enzyme of SEQ No. 2 from strain USBA-GBX-499 with a C-terminal tail of 5-10 histidine residues (protein, listed as Acidicaldus sp.)
chain: MPLDRHAEAVLEMIRQSGRPPYETLTPAEARGLYRQAREVLAPEPPPVAEVRDLSLPHPAGPALPTRLYRPQQGGAPLPLLVYFHGGGWVIGDLETHDVVCREIANRAGIGVLSIDYRLAPEHKFPAAVEDAFAATRWAAKEAPSLGFDPARLAVGGDSAGGNLAAVVSLLAREQGGPSIAFQLLIYPATDLGMTHPSHQRWAEGYLLTRPTMEWFRAHYLTDPTREIADWRVSPLRAPDLRGLPPAFVLTAEYDPLVDEGEDYAARLAAAGVPVATHRVPGMIHGFLTMGKAIPAANEALGLIAERLRAALA
modifications: C-terminal histidine tail; amino acid sequence of 499EST
pH of optimum activity [1]: 9.0 | temperature of optimum activity [1]: 55 °C | conversion c [2, 6]: 56% | enantioselectivity E [2, 6]: 4 | ee of the substrate (phenyl ester of ibuprofen) ([2]; chiral HPLC): 50% | ee of the product ([2]; chiral HPLC, product derivatized as methyl ester): 40% | conversion ([3]; 1H-RMN): 52% | ee of naproxen product ([3]; HPLC): 65% | enantioselectivity E ([3]; phenyl ester of naproxen): 10 | conversion ([4]; 1H-RMN): 49% | ee of naproxen product ([4]; HPLC): 31% | enantioselectivity lower for the pNP ester than for the phenyl ester ([4]; naproxen esters): 5 times | enantioselectivity E ([4]; pNP ester of naproxen): 2 | storage time [5]: several months
